US6521740 (IMMUNEX, dated 2003)

Assays:
[1] = biological target: T1, recombinant human IL-1β (human, UniProt P01584 117-269); experiment: Inhibition binding assay; soluble receptor (COS-7 supernatant, serially diluted) against 125I-IL-1β binding to CB23 cells; phthalate oil separation
T1 construct: The 17.5 kD size is consistent with the mature form; also called rIL-1β
Protocol: The binding inhibition constant of the soluble human type II IL-1R, expressed and purified as described in Example 2 above, is determined by a inhibition binding assay in which varying concentrations of an IL-1β competitor is incubated with a constant amount of radiolabeled I-IL-1β and CB23 cells (an Epstein Barr virus transformed cord blood B lymphocyte cell line) expressing the type II IL-1R. Binding assays were also performed by a phtahlate oil separation method essentially as describe by Dower et al., *J. Immunol.* 132:751, 1984 and Park et al., *J. Biol. Chem.* 261:4177, 1986. Briefly, COS-7 cells were transfected with the expression vector pDC406 containing a cDNA encoding the soluble human type II IL-1R described above. Supernatants from the COS cells were harvested 3 days after transfection and serially diluted in binding medium (Roswell Park Memorial Institute (RPMI) 1640 medium containing 2% BSA, 20 mM Hepes buffer, and 0.2% sodium azide, pH 7.2) in […] to a volume of 50 μl/well. […] Duplicate 60 μl aliquots of the incubation mixture were then transferred to polyethylene centrifuge tubes containing a phthalate oil mixture comprising 1.5 parts dibutylphthalate, to 1 part bis(s-ethylhexyl)phthalate. […] The radioactivity of the cells was then determined on a gamma counter.

[2] = biological target: T2, recombinant human IL-1α (human, UniProt P01583 113-271, limits assumed); experiment: Inhibition binding assay; soluble receptor against IL-1α binding to CB23 cells; same procedure
T2 construct: also called Interleukin-1α
T2 sequence (looked up): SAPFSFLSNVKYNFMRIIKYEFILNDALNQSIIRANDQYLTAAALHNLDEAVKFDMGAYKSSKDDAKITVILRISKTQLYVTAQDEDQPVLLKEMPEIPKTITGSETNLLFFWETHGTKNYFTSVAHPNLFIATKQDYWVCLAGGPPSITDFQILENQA

B1: soluble human type II IL-1R (amino acids -13-333 of SEQ ID NO:1) (receptor)
chain: FTLQPAAHTGAARSCRFRGRHYKREFRLEGEPVALRCPQVPYWLWASVSPRINLTWHKNDSARTVPGEEETRMWAQDGALWLLPALQEDSGTYVCTTRNASYCDKMSIELRVFENTDAFLPFISYPQILTLSTSGVLVCPDLSEFTRDKTDVKIQWYKDSLLLDKDNEKFLSVRGTTHLLVHDVALEDAGYYRCVLTFAHEGQQYNITRSIELRIKKKKEETIPVIISPLKTISASLGSRLTIPCKVFLGTGTPLTTMLWWTANDTHIESAYPGGRVTEGPRQEYSENNENYIEVPLIFDPVTREDLHMDFKCVVHNTLSFQTLRTTVKEASS
notes: It includes 3 amino acids of the predicted transmembrane region (331-356)
KI (binding inhibition constant, given as an association constant) [1]: ~3.5e+09 M⁻¹
KI (binding inhibition constant, given as an association constant) [2]: 1.4e+08 M⁻¹
